Tests used:
[1] = target: T1, human PD-1 (NM_005018.2) over-expressed on cells (human, UniProt Q15116 25-288); assay: cell-based or functional assay
[2] = target: T2, M2; assay: scFv-phage ELISA
T2 construct: also called PD1 mutant M2

[3] = target: T3, M2-1; assay: scFv-phage ELISA
T3 construct: also called PD1 mutant M2-1

[4] = target: T4, M3; assay: scFv-phage ELISA
T4 construct: also called PD1 mutant M3

[5] = target: T5, M4; assay: scFv-phage ELISA
T5 construct: also called PD1 mutant M4

[6] = target: T6, M11; assay: scFv-phage ELISA
T6 construct: also called PD1 mutant M11

[7] = target: T7, M5; assay: scFv-phage ELISA
T7 construct: also called PD1 mutant M5

[8] = target: T8, M5-1; assay: scFv-phage ELISA
T8 construct: also called PD1 mutant M5-1

[9] = target: T9, M5-2; assay: scFv-phage ELISA
T9 construct: also called PD1 mutant M5-2

[10] = target: T10, M12; assay: scFv-phage ELISA
T10 construct: also called PD1 mutant M12

[11] = target: T11, M13; assay: scFv-phage ELISA
T11 construct: also called PD1 mutant M13

[12] = target: T12, M14; assay: scFv-phage ELISA
T12 construct: also called PD1 mutant M14

[13] = target: T13, M7; assay: scFv-phage ELISA
T13 construct: also called PD1 mutant M7

[14] = target: T14, M7-1; assay: scFv-phage ELISA
T14 construct: also called PD1 mutant M7-1

[15] = target: T15, M7-2; assay: scFv-phage ELISA
T15 construct: also called PD1 mutant M7-2

[16] = target: T16, M8; assay: scFv-phage ELISA
T16 construct: also called PD1 mutant M8

[17] = target: T17, M9; assay: scFv-phage ELISA
T17 construct: also called PD1 mutant M9

[18] = target: T18, M10; assay: scFv-phage ELISA
T18 construct: also called PD1 mutant M10

[19] = target: T19, ITGA6-Fc; assay: scFv-phage ELISA
T19 construct: Fc fusion
T19 sequence (P23229 whole entry, species assumed, looked up): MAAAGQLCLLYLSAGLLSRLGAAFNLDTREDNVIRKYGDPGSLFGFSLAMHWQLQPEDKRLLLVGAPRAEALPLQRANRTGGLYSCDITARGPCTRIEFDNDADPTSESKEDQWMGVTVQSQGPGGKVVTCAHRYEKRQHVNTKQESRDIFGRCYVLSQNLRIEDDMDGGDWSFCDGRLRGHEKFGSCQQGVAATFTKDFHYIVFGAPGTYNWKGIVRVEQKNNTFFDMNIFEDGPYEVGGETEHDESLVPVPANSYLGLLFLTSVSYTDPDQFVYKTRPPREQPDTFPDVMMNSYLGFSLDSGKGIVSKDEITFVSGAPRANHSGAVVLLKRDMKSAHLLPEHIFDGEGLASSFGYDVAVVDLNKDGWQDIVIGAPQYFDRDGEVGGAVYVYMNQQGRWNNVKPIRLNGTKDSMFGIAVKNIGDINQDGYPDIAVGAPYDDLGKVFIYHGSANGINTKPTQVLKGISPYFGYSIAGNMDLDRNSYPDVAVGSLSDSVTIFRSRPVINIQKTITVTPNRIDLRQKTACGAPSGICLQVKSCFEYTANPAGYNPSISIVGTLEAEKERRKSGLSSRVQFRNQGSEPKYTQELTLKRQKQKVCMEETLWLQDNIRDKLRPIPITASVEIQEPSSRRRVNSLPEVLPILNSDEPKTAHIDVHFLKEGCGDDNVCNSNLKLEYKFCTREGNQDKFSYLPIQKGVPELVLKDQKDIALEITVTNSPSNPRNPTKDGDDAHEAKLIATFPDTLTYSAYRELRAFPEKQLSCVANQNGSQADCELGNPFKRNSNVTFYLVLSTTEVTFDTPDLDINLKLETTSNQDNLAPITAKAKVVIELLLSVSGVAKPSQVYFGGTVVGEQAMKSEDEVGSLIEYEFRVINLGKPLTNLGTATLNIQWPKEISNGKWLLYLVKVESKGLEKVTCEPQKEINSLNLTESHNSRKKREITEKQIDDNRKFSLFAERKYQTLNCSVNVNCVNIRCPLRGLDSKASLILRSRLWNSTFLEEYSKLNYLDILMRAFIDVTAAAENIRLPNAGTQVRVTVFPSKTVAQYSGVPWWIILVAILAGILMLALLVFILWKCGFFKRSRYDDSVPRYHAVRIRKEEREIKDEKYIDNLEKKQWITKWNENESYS

[20] = target: T20, M1; assay: scFv-phage ELISA
T20 construct: also called PD1 mutant M1

[21] = target: T21, M1-1; assay: scFv-phage ELISA
T21 construct: also called PD1 mutant M1-1

[22] = target: T22, antigen PD1 (coated, construct not stated) (UniProt Q15116 25-170, limits assumed); assay: scFv-phage ELISA
T22 construct: also called PD1 antigen; PDCD1
T22 sequence (Q15116 25-170 limits assumed): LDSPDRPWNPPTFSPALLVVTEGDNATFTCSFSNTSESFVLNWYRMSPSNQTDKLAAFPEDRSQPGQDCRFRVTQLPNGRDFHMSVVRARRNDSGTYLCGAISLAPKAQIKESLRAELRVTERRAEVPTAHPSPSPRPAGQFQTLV

[23] = target: T1, human PD-1 (NM_005018.2) over-expressed …; assay: cell-based or functional assay; remark: listed apart in the source
[24] = target: T1, human PD-1 (NM_005018.2) over-expressed …; assay: flow cytometry on cells over-expressing human PD-1, Geometric Mean
Experimental: 0.5 to 1×10⁶ cells per sample were each prepared from the transformation cell pools highly expressing human PD-1, and antibodies were serially diluted at a constant dilution rate and reacted with the prepared cells at 4° C. for 20 minutes. Then, the cells were washed three times with PBS (#LB001-02, Welgene) containing 2% fetal bovine serum and reacted at 4° C. for 20 minutes with an anti-human IgG antibody (#FI-3000, Vectorlabs) conjugated with a FITC (fluorescein isothiocyanate) fluorescent substance. Then, the cells were subjected to the same washing process as above and then suspended in 0.5 ml of PBS containing 2% FBS (#26140-079, Thermo Fisher) with an FACSCanto II flow cytometer (BD Biosciences, USA) as a flow cytometer.

T1 sequence (Q15116 25-288): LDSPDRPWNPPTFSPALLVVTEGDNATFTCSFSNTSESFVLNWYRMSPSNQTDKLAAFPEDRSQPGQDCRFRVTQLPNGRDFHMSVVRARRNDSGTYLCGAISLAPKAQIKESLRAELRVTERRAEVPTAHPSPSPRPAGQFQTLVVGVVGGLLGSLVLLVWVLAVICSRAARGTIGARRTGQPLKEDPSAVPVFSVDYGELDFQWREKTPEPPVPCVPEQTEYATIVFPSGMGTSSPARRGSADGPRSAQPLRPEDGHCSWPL

Row | Binder | EC50 [nM], PD1/PD-L1 blockade bioassay [1] [nM] | OD490 [2] | OD490 [3] | OD490 [4] | OD490 [5] | OD490 [6] | OD490 [7] | OD490 [8] | OD490 [9] | OD490 [10] | OD490 [11] | OD490 [12] | OD490 [13] | OD490 [14] | OD490 [15] | OD490 [16] | OD490 [17] | OD490 [18] | OD490 [19] | OD490 [20] | further results
1 | PD1-52E8 (antibody, V domains shown, scFv-phage in the screening ELISA; whole IgG in the other assays) VH: QVQLVQSGGNLVQPGRSLRLSCAASGFTFDDYAMHWVRQAPGKGLEWVSGISWNSGTPGYADSVQGRFTISRDNAKNSLYLQMNSLRAEDTAVYYCARGHNYLDSSYYDYWGQGTLVTVSS VL: SYELTQPLSLSVAPGQTARITCSGDALSKEYSYWYQQKPGQAPVLVMYKDSERPSGIPERFSGSSSGTTVTLTISGVQAEDEADYYCQSVDSSDTSVVFGGGTKLTVL | 8.43 | 0.2 | 2.9 | 1.5 | 3.7 | 0.2 | 0.5 | 0.3 | 3.5 | 3.2 | 3.9 | 2.6 | 1 | 1.1 | 3.9 | 0.6 | 2.4 | 1 | 0.1 | 1.4 | OD490 [21]: 1.5; OD490 [22]: 0.4
2 | PD1-45D6 (antibody, V domains shown, scFv-phage in the screening ELISA; whole IgG in the other assays) VH: QVQLVESGGGVVQPGRSLRLSCAASGFTFSSYAMHWVRQVPGKGLEWVAVISYDGNDKYYADSVKGRFTISRDNSKNTLYLQMNSLRAEDTAVYYCVPTTFEYWGQGSQVTVSS VL: DIVMTQTPLSLPVTPGEAASISCRSSQSLLDSDDGKTYLDWYLQKPGQSPQLLIYTLSYRASGVPDRFSGSGSGTEFNLRISRVEAEDVGIYYCMQRVEFPFTFGQGTKLDIK | 2 | 0.4 | 3.9 | 3.8 | 3.9 | 0.7 | 3.6 | 3.8 | 3.9 | 3.9 | 4 | 3.9 | 0.5 | 1.3 | 4 | 3.8 | 3.8 | 3.9 | 0.5 | 4 | OD490 [21]: 3.8; OD490 [22]: 3.8; EC50 [23]: 1.29 nM; EC50 [24]: 4.84 nM
3 | PD1-41C9 (antibody, V domains shown, scFv-phage in the screening ELISA; whole IgG in the other assays) VH: QMQLVESGGGVVQPGRSLRLSCAASGFTFSSYAMHWVRQAPGKGLEWVAVISYDGSNKYYADSVKGRFTISRDNSKNTLYLQMNRLRSEDTAVYYCTTTTFDSWGQGTLITVSS VL: DIVMTQTPLSLPVTPGEAASISCRSSQSLLDSEDGNTYLDWYLQKPGQSPQLLIYTLSHRASGVPDRFSGSGSGTDFTLKISRVAAEDVGLYYCLQRMGFPYTFGQGTKLDIK | 3.91 | 0.8 | 3.4 | 2.3 | 3.2 | 0.9 | 2.3 | 2.8 | 3.6 | 3.1 | 3.6 | 3.5 | 0.8 | 1.2 | 3 | 2.5 | 3.3 | 3.4 | 0.5 | 3.2 | OD490 [21]: 3.1; OD490 [22]: 3.2; EC50 [23]: 3.57 nM; EC50 [24]: 5.89 nM
4 | PD1-49A2 (antibody, V domains shown, scFv-phage in the screening ELISA; whole IgG in the other assays; also called Parent 49A2) VH: QVQLVESGGGVVQPGRSLRLSCAASGFTFSSYAMHWVRQAPGKGLEWVAVISYDGSNKYYADSVKGRFTISRDNPKNTLYLQMNSLRAEDTAVYYCTTTTFDSWGRGTLVTVSS VL: DIVMTQSPLSLPVTPGEPASISCRSSQSLFDSDDGNTYLDWYLQKPGQSPQLLIYTLSHRASGVPDRFSGSGSGTDFTLKISRVEAEDVGIYYCLQRMGFPYTFGQGTKVEIK | 3.78 | 0.3 | 3.7 | 3.4 | 3.9 | 0.4 | 1.2 | 0.7 | 3.8 | 3.9 | 3.9 | 3.9 | 0.4 | 0.5 | 2.2 | 3 | 3.7 | 2.6 | 0.2 | 3 | OD490 [21]: 3.4; OD490 [22]: 3.6; EC50 [23]: 2.05 nM; EC50 [24]: 5.07 nM

— US20190248900A1 (Y BIOLOGICS, published 2019)
